Assay results: the Human Domainome abundance scans (Beltran et al. 2025)
± gives the uncertainty stated by the source.

B1: Ankyrin-3, residues 4094 to 4171; numbered along this chain, Q12955 (parent)
chain: MAIVADHLGLSWTELARELNFSVDEINQIRVENPNSLISQSFMLLKKWVTRDGKNATTDALTSVLTKINRIDIVTLLE

Variants of: B1
Assay: abundance fitness (aPCA) (normalised: wild type 0, dead -1); higher = more abundant; growth selection in yeast, the domain comes from the species named
Settings: Homo sapiens

Row | Variant | abundance fitness
1 | MAIVADHLGLSWTELARELNFSVDEINQIRVENPNSLISQSFKLLKKWVTRDGKNATTDALTSVLTKINRIDIVTLLE [M43K] | -0.185 ± 0.16
2 | MAIVADHLGLSWTELARELNFSVDEINQIRVENPNSLISQSFMLLKKWVTRDGKNATTDALTSVLTKINRIDIVTRLE [L76R] | 0.045 ± 0.039
3 | MAIVADHLGLSWTELARELNFSVDEINQIRVENPNSLISQSFMLLKKWVTRDGKNATTDALTSVLTKINRILIVTLLE [D72L] | -0.718 ± 0.11
4 | MAIVADHLGLSWTELARELNFSVDEINQIRVENPNSLISQSFMLLKKWVTRDGKNATTDALTSVLTKINRIDIVTLME [L77M] | -0.022 ± 0.12
5 | MAIVADHLGLSWTELARELNFSVDEINQIRVENPNSLISQSFMLLKKWVTRDGKNATTDALTSVLTKINRIDIVVLLE [T75V] | -0.112 ± 0.088
6 | MAIVADHLGLSWTELARELNFSVDEINQIRVENPNSLISQSFMLLKKWVTRDGKNATTDALTSVLTKINRIDIYTLLE [V74Y] | -0.55 ± 0.35
7 | MAIVADHLGLSWTELARELNFSVDEINQIRVENPNSLISQSFMLLKKWVTRDGKNATTDALTSVLTKINRIDAVTLLE [I73A] | -0.631 ± 0.16
8 | MAIVADHLGLSWTELARELNFSVDEINQIRVENPNSLICQSFMLLKKWVTRDGKNATTDALTSVLTKINRIDIVTLLE [S39C] | -0.011 ± 0.14
9 | MAIVADHLGLSWTELARELNFSVPEINQIRVENPNSLISQSFMLLKKWVTRDGKNATTDALTSVLTKINRIDIVTLLE [D24P] | -0.352 ± 0.086
10 | MAIVADHLGLSWTELARELNFSVDEINQIRVENPNSLISQSFMLLKKWVTRDGKNATTDALRSVLTKINRIDIVTLLE [T62R] | 0.068 ± 0.058
11 | MAIFADHLGLSWTELARELNFSVDEINQIRVENPNSLISQSFMLLKKWVTRDGKNATTDALTSVLTKINRIDIVTLLE [V4F] | -0.789 ± 0.28
12 | MAIVADHLGLSWTELARELNFSVDEINQIRVENPNSLISQSFMVLKKWVTRDGKNATTDALTSVLTKINRIDIVTLLE [L44V] | -0.171 ± 0.047
13 | MAIVADHLGLSWTEQARELNFSVDEINQIRVENPNSLISQSFMLLKKWVTRDGKNATTDALTSVLTKINRIDIVTLLE [L15Q] | -0.75 ± 0.33
14 | MAIVADHLGLSWTELARELNFSVDEINQIRVENPNSLISQSFMLLKKWVDRDGKNATTDALTSVLTKINRIDIVTLLE [T50D] | 0.089 ± 0.045
15 | MAIVADHLGLSWTELARELNFSVDEINQIRVENPNSLISQSFMLLKKWVTRDGKNATTDALTSVLTKTNRIDIVTLLE [I68T] | -0.987 ± 0.31
16 | MAIVADHLCLSWTELARELNFSVDEINQIRVENPNSLISQSFMLLKKWVTRDGKNATTDALTSVLTKINRIDIVTLLE [G9C] | -0.781 ± 0.14
17 | MAIVADHLGLSWTELARELNFSVTEINQIRVENPNSLISQSFMLLKKWVTRDGKNATTDALTSVLTKINRIDIVTLLE [D24T] | -0.152 ± 0.12
18 | MAIVADHLGLSWTELARELNFSVDEINQIRVENPNSLASQSFMLLKKWVTRDGKNATTDALTSVLTKINRIDIVTLLE [I38A] | -0.02 ± 0.073

Row | Variant | abundance fitness
19 | MAIVADHLGLSWTELARELNFSVDEINQIRVENPNSLISQEFMLLKKWVTRDGKNATTDALTSVLTKINRIDIVTLLE [S41E] | -0.912 ± 0.2
20 | MAIVADHLGLSWTELARELNFSVDEINQIRVENPNSLISQSFMLLKKWVTRDGKQATTDALTSVLTKINRIDIVTLLE [N55Q] | 0.011 ± 0.051
21 | EAIVADHLGLSWTELARELNFSVDEINQIRVENPNSLISQSFMLLKKWVTRDGKNATTDALTSVLTKINRIDIVTLLE [M1E] | -0.365 ± 0.13
22 | MAIVADHLGLSWTELARELNFSVDEINQIRVENPNSHISQSFMLLKKWVTRDGKNATTDALTSVLTKINRIDIVTLLE [L37H] | -0.107 ± 0.072
23 | MAIVADHLGYSWTELARELNFSVDEINQIRVENPNSLISQSFMLLKKWVTRDGKNATTDALTSVLTKINRIDIVTLLE [L10Y] | -0.104 ± 0.2
24 | MAIVADHLGLSWTELARELNFSVDEINQIRVENPNSLISQSFMLLKKWVTRDGKNATTDALTSVLTKINRIDIVTLLK [E78K] | -0.025 ± 0.085
25 | MAIVADHLGLSWTELARELFFSVDEINQIRVENPNSLISQSFMLLKKWVTRDGKNATTDALTSVLTKINRIDIVTLLE [N20F] | -0.196 ± 0.12
26 | MAIVADHLGLSWTELARELNFSVDEINQIRVENPNSLISQSFMLLKKWVTRDGKNATTDALTSVLTKILRIDIVTLLE [N69L] | -0.679 ± 0.1
27 | MAIVADHLGLSWTELARELNFSVDEINQIRVENPNSLISCSFMLLKKWVTRDGKNATTDALTSVLTKINRIDIVTLLE [Q40C] | -0.127 ± 0.14
28 | MKIVADHLGLSWTELARELNFSVDEINQIRVENPNSLISQSFMLLKKWVTRDGKNATTDALTSVLTKINRIDIVTLLE [A2K] | -0.095 ± 0.2
29 | MAIVADHLGLSWTELARYLNFSVDEINQIRVENPNSLISQSFMLLKKWVTRDGKNATTDALTSVLTKINRIDIVTLLE [E18Y] | -0.605 ± 0.17
30 | MAIVADHLGLSWTELARELNFSVDEINQIRVENPNSLISQSFMLLKKWVTRDGKNATTDALTTVLTKINRIDIVTLLE [S63T] | 0.023 ± 0.066
31 | MAIVADHLGLSWTELARELNFSVDEINQIRVENPNSLISQSFMLLKKWVTRDGKNATTKALTSVLTKINRIDIVTLLE [D59K] | 0.052 ± 0.078
32 | MAIVADHLGLSWTELARELNFSVDEINQIRVENPNSEISQSFMLLKKWVTRDGKNATTDALTSVLTKINRIDIVTLLE [L37E] | 0.026 ± 0.099
33 | MAIVADHLGLSWTELARELNFSVDEINQIRVENPNSLIRQSFMLLKKWVTRDGKNATTDALTSVLTKINRIDIVTLLE [S39R] | 0.001 ± 0.034
34 | MAISADHLGLSWTELARELNFSVDEINQIRVENPNSLISQSFMLLKKWVTRDGKNATTDALTSVLTKINRIDIVTLLE [V4S] | -0.766 ± 0.22
35 | MAIVADHLGLSWTELARELNFSVDEINQIRVENPNSLISQSFMLLKKWVTRDGKNATTDALTSVLTKINRIDIVTLCE [L77C] | -0.164 ± 0.12
